B1: Natural cytotoxicity triggering receptor 3 (Homo sapiens), O14931 (parent)
chain: MAWMLLLILIMVHPGSCALWVSQPPEIRTLEGSSAFLPCSFNASQGRLAIGSVTWFRDEVVPGKEVRNGTPEFRGRLAPLASSRFLHDHQAELHIRDVRGHDASIYVCRVEVLGLGVGTGNGTRLVVEKEHPQLGAGTVLLLRAGFYAVSFLSVAVGSTVYYQGKCLTWKGPRRQLPAVVPAPLPPPCGSSAHLLPPVPGG
partner: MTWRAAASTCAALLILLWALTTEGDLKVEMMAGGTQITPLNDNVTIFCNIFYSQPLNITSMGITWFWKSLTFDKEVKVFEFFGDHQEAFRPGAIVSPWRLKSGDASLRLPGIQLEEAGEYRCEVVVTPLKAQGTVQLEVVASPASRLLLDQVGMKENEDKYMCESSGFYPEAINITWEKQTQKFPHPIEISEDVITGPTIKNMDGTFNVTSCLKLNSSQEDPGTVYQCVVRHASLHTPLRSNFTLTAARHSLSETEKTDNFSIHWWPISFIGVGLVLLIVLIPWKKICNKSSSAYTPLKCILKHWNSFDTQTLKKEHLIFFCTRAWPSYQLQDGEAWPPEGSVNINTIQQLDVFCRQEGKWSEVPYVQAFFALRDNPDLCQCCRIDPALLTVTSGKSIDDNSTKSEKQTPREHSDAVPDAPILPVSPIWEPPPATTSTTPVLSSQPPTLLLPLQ

The test covers variants of B1. The conditions noted are these: with nr3l1_human NCR3LG1, Q68D85.
Take F85A;L86A: the “effect of a mutation on the interaction” value was “decreasing interaction strength”. With S52R, the “effect of a mutation on the interaction” value is listed as “disrupting interaction strength”. On to I50A;S52A, for which the “effect of a mutation on the interaction” value was “decreasing interaction strength”.
